Molecular target: AcrIIA6 (anti-CRISPR protein of Streptococcus thermophilus virulent phage D1811, product of gene D1811_026) (Streptococcus thermophilus phage D1811)
Assay: SEC; gel filtration profile of purified AcrIIA6; size exclusion chromatography in 20 mM Hepes pH 7.5, 150 mM NaCl

## AcrIIA6 (anti-CRISPR protein of Streptococcus thermophilus virulent phage D1811, product of gene D1811_026) (natural protein)
  stoichiometry N: 2

Source: PMC6060171
